Data: patent US20240059759A1 (BIGHAT BIOSCIENCES, published 2024)
Changes are numbered by the printed parent chain. Names and notes keep the numbering of the source.

B1: VHH-72(S57G) (VHH)
VHH: QVQLQESGGGLVQAGGSLRLSCAASGRTFSEYAMGWFRQAPGKEREFVATISWSGGGTYYTDSVKGRFTISRDNAKNTVYLQMNSLKPDDTAVYYCAAAGLGTVVSEWDYDYDYWGQGTQVTVSS
B2: VHH-72 (S57Y) (VHH)
VHH: B1 VHH with G57Y
B3: VHH-72 (S57A, Y60T) (VHH)
VHH: B1 VHH with G57A, Y60T
B4: VHH-72 (S57A, Y60H) (VHH)
VHH: B1 VHH with G57A, Y60H
B5: VHH-72 (S57A) (VHH)
VHH: B1 VHH with G57A
B6: VHH-72(S57S) (VHH)
VHH: B1 VHH with G57S
B7: VHH-72(S57T) (VHH)
VHH: B1 VHH with G57T
B8: VHH-72 variant expressing both S57A and D61A (VHH)
VHH: B1 VHH with G57A, D62A
B9: VHH-72(D61A) (VHH)
VHH: B1 VHH with G57S, D62A

What was measured:
[1] = target: T1, SARS-CoV-2 RBD (SinoBiological, Cat. No. 40592-V02H) (SARS-CoV-2, UniProt P0DTC2 319-541); test: ELISA on SARS-CoV-2 RBD
T1 construct: domain: RBD

[2] = target: T1, SARS-CoV-2 RBD (SinoBiological, Cat. …); test: ELISA on RBD, compared with wildtype VHH-72
[3] = target: T1, SARS-CoV-2 RBD (SinoBiological, Cat. …)
[4] = target: T1, SARS-CoV-2 RBD (SinoBiological, Cat. …); test: ELISA on RBD
[5] = target: T1, SARS-CoV-2 RBD (SinoBiological, Cat. …); test: ELISA, relative EC50

Binder	Rel. EC50 - ELISA [1]	EC50 [4] [µg/mL]	also measured
B1	0.09 relative to WT	–	–
B2	0.28 relative to WT	–	fold increased apparent affinity [2]: ~4 fold
B3	–	0.024	fold further-increased apparent RBD affinity [3]: ~3.5 fold
B4	–	0.029	fold further-increased apparent RBD affinity [3]: ~3.5 fold
B5	0.05 relative to WT	0.09	fold increase in RBD affinity [2]: 22 fold
B6	1 relative to WT	–	–
B7	–	–	binding result [5]: no binding
B8	–	0.012	fold improved binding compared to the wildtype VHH-72 [2]: > 160 fold
B9	–	0.51	fold increased RBD binding [2]: 4 fold
